For two substances, glutamylation activity with taxol-stabilized MTs, normalized to WT and glutamylation activity with taxol-stabilized MTs, decrease against WT results are on record in PMC11529724.

This test concerns the target microtubules assembled from porcine brain tubulin (porcine) (UniProt P02550).

Sequence of microtubules assembled from porcine brain tubulin (porcine) (P02550 whole entry, chain 1 of 2): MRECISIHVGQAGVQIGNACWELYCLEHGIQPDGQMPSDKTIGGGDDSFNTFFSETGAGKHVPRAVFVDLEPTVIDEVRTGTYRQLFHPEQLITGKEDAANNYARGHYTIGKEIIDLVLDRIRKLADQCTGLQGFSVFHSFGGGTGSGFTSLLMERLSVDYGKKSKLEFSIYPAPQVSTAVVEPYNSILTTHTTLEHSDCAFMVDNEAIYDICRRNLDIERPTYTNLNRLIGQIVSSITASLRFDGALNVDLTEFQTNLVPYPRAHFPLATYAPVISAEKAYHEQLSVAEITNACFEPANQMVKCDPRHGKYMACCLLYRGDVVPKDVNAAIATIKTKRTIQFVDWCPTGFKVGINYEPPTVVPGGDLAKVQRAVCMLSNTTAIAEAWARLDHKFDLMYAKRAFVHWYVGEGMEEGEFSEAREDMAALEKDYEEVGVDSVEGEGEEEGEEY
Sequence of microtubules assembled from porcine brain tubulin (porcine) (P02554 whole entry, chain 2 of 2, further chain): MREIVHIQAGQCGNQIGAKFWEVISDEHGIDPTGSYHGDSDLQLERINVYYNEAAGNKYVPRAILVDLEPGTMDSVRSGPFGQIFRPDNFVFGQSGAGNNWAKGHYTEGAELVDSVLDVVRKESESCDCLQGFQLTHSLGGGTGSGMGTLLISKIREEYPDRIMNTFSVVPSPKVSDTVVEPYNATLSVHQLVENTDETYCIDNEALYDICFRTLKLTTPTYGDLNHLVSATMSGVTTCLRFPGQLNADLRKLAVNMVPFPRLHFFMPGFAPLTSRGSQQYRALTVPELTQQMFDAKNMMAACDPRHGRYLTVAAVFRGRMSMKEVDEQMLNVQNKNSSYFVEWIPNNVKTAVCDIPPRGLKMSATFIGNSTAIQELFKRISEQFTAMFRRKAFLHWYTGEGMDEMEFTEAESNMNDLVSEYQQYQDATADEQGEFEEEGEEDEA

Regarding “TTLL6 with R403 and R407 mutated to alanine (from UniProt A4Q9E8 51-502) (enzyme)”, the glutamylation activity with taxol-stabilized MTs, normalized to WT is 55 % of WT.
For the substance “TTLL6 with R415 and R418 mutated to alanine (from UniProt A4Q9E8 51-502) (enzyme)”, the glutamylation activity with taxol-stabilized MTs, decrease against WT was determined as 47 % decrease.
